For one molecule, EC50 results are on record in patent US20200010567A1 (NEURIMMUNE, published 2020).

A value given as a limit tells only on which side of the number the result lay.

Test in all cases: indirect ELISA, coated His-tagged peptide; indirect ELISA, peptide coated directly on the plate
The target in one assay is T1, GP6: H-(GP)6HHHHHH-NH2.
T1 peptide: H-GPGPGPGPGPGPHHHHHH-NH2
The source says: (§1) In brief, dipeptide repeat proteins were synthesized and purified by Schafer-N (Copenhagen, Denmark): GA₂₀: H-(GA)₂₀HHHHHH-NH₂; GA₁₀: H-(GA)₁₀HHHHHH-NH₂; GA₆: H-(GA)₆HHHHHH-NH₂; GA₅: H-(GA)₅HHHHHH-NH₂; GA₄: H-(GA)₄HHHHHH-NH₂; GA₃: H-(GA)₃HHHHHH-NH₂; GA₂: H-(GA)₂HHHHHH-NH₂; GP₂₀: H-(GP)₂₀HHHHHH-NH₂; GP₁₀: H-(GP)₁₀HHHHHH-NH₂; GP₆: H-(GP)₆HHHHHH-NH₂; GP₅: H-(GP)₅HHHHHH-NH₂; GP₄: H-(GP)₄HHHHHH-NH₂; GP₃: H-(GP)₃HHHHHH-NH₂; GP₂: H-(GP)₂HHHHHH-NH₂. GR₂₀: H-(GR)₂₀HHHHHH-NH₂; GR₁₀: H-(GR)₁₀HHHHHH-NH₂; GR₆: H-(GR)₆HHHHHH-NH₂; GR₅: H-(GR)₅HHHHHH-NH₂; GR₄: H-(GR)₄HHHHHH-NH₂; GR₃: H-(GR)₃HHHHHH-NH₂; GR₂: H-(GR)₂HHHHHH-NH₂; PA₂₀: H-(PA)₂₀HHHHHH-NH₂; PA₁₀: H-(PA)₁₀HHHHHH-NH₂; PA₆: H-(PA)₆HHHHHH-NH₂; PA₅: H-(PA)₅HHHHHH-NH₂; PA₄: H-(PA)₄HHHHHH-NH₂; PA₃: H-(PA)₃HHHHHH-NH₂; PA₂: H-(PA)₂HHHHHH-NH₂; PR₂₀: H-(PR)₂₀HHHHHH-NH₂; PR₁₀: H-(PR)₁₀HHHHHH-NH₂; PR₆: H-(PR)₆HHHHHH-NH₂; PR₅: H-(PR)₅HHHHHH-NH₂; PR₄: H-(PR)₄HHHHHH-NH₂; PR₃: H-(PR)₃HHHHHH-NH₂; PR₂: H-(PR)₂HHHHHH-NH₂. 96-well microplates (Corning Incorporated, Corning, USA) were coated with dipeptide repeat protein peptides at a concentration of 50 μg/ml in coating buffer (15 mM Na₂CO₃, 35 mM NaHCO₃, pH 9.42). Non-specific binding sites were blocked for 1 h at room temperature with PBS/0.1% Tween®-20 containing 2% BSA (Sigma-Aldrich, Buchs, Switzerland). Primary antibodies were diluted to the indicated concentrations and incubated 1 h at room temperature, followed by incubation with a donkey anti-human IgG Fcγ-specific antibody conjugated with HRP (Jackson ImmunoResearch Laboratories, Inc., West Grove, USA). Binding was determined by measurement of HRP activity in a standard colorimetric assay. EC₅₀ values were estimated by non-linear regression using GraphPad Prism software (San Diego, USA).

Another assay deals with T2, GP10: H-(GP)10HHHHHH-NH2 (C-terminal amide).
T2 peptide: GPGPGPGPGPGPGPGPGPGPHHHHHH
Excerpt: as §1

A further assay has as its target T3, GP5: H-(GP)5HHHHHH-NH2.
T3 peptide: H-GPGPGPGPGPHHHHHH-NH2
Excerpt: as §1

B1: NI-308.5G2 (antibody, V domains shown)
VH: EVQLVQSGADLRNPGASVTVSCTASGYHFADNAINWLRQAPGQRLEWMGWINIYSGNTKYSQNFQGRVTFTRNTSASTAFMHLRSLRSEDTAVYFCARDPDSSGYYLPYFDYWGQGTLVTVSS
VL: DIQLTQSPDSLTLSLGERATINCKSSQSVFYNSNNKNYLAWYQQKPGQPPKLLMYWASTRESGVTDRFSGSGSGTDFTLTITNLQAEDVAVYYCQQFYSSPLTFGGGTKVEIK
notes: Recombinant complete human IgG1, kappa
By EC50 is commonly meant the concentration that produces a half-maximal response. Read a high EC50 as weaker potency. As for B1, the figures for the EC50 with GP6: H-(GP)6HHHHHH-NH2, with GP10: H-(GP)10HHHHHH-NH2 and with GP5: H-(GP)5HHHHHH-NH2 were 26.8 nM, 0.94 nM and over 200 nM, respectively.
